Key:
[1] = target: membrane-bound endogenous human CEACAM5 and CEACAM6 on BxPC3 cells; assay: cell-based or functional assay; set-up: unit not given beside the values
[2] = target: human CEACAM5 on 293T cells (293T-huCEACAM5 cells) (human) (UniProt P06731); assay: cell-based or functional assay; set-up: unit not given beside the values
[3] = target: human CEACAM6 on 293T cells (293T-huCEACAM6 cells) (human) (UniProt P40199); assay: cell-based or functional assay; set-up: unit not given beside the values
Chain of human CEACAM6 on 293T cells (293T-huCEACAM6 cells) (human) (P40199 35-320): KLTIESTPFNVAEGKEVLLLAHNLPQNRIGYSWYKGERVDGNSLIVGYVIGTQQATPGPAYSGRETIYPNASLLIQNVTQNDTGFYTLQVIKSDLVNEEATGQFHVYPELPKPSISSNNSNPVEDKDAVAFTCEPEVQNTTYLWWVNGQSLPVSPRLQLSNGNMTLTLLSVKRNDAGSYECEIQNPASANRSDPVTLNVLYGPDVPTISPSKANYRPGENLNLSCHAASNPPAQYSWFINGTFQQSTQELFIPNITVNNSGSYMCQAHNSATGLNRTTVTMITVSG

[4] = target: membrane-bound endogenous human CEACAM5 and CEACAM6 on LS 174T cells; assay: cell-based or functional assay; set-up: unit not given beside the values
[5] = target: membrane-bound endogenous human CEACAM5 and CEACAM6 on BxPC3 cells; assay: cell-based or functional assay
[6] = target: human CEACAM5 on 293T cells (293T-huCEACAM5 cells) (human) (UniProt P06731); assay: cell-based or functional assay
[7] = target: human CEACAM6 on 293T cells (293T-huCEACAM6 cells) (human) (UniProt P40199); assay: cell-based or functional assay
[8] = target: antigen of the anti-CEACAM5/6 antibodies on HPAC cells; assay: cell-based or functional assay
[9] = target: membrane-bound endogenous human CEACAM5 and CEACAM6 on LS 174T cells; assay: cell-based or functional assay
[10] = target: membrane-bound endogenous human CEACAM5 and CEACAM6 on LS 174T cells; assay: flow cytometry on LS 174T cells
[11] = target: membrane-bound endogenous human CEACAM5 and CEACAM6 on BxPC3 cells; assay: flow cytometry on BxPC3 cells

Chain of human CEACAM5 on 293T cells (293T-huCEACAM5 cells) (human) (P06731 35-685 limits assumed): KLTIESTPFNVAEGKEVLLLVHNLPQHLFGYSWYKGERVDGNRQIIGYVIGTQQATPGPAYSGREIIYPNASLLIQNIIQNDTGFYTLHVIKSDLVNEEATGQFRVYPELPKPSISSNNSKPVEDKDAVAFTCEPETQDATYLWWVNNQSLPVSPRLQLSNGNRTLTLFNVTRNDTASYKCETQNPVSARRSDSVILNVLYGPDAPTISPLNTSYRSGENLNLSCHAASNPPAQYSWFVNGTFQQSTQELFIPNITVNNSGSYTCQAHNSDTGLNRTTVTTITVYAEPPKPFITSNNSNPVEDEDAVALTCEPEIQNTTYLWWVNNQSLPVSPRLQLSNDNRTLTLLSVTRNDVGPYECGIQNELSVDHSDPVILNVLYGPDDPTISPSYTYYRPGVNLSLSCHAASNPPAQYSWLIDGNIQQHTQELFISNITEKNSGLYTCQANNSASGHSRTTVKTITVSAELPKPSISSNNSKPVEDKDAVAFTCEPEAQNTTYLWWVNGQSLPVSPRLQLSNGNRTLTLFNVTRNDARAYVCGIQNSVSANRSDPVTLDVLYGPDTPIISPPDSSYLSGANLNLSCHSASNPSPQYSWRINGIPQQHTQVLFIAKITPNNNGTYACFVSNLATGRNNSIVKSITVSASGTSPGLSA

Row | Internalization of pHAb-dye-labelled antibody, MFI (37° C.-4° C.)/DAR [5] | Internalization of pHAb-dye-labelled antibody, MFI (37° C.-4° C.)/DAR [6] | Internalization of pHAb-dye-labelled antibody, MFI (37° C.-4° C.)/DAR [7] | Internalization of pHAb-dye-labelled antibody, MFI (37° C.-4° C.)/DAR [8] | Internalization of pHAb-dye-labelled antibody, MFI (37° C.-4° C.)/DAR [9] | EC50 [10] | EC50 [11] | Substance | IC50 of in vitro cytotoxicity of the ADC (CellTiter-Glo, 6 days) [1] | IC50 of in vitro cytotoxicity of the ADC (CellTiter-Glo, 6 days) [2] | IC50 of in vitro cytotoxicity of the ADC (CellTiter-Glo, 6 days) [3] | IC50 of in vitro cytotoxicity of the ADC (CellTiter-Glo, 6 days) [4]
1 | – | – | – | – | – | – | – | IgG-MMAE | 100 | 66 | 72 | 700
2 | 0 | 888 | 975 | 3010 | 468 | – | – | non-relevant IgG isotype control (Crownbio, hIgG1) (antibody) | – | – | – | –
3 | 8230 | – | – | – | 1320 | 1.74 nM | 3.06 nM | PR303561 (Tusamitamab) (antibody) | – | – | – | –
